{"source": "paper PMC10575957", "assay_in_all_cases": "cryo-EM structure; portal-tail complex of the native P-SCSP1u virion, symmetry-mismatch reconstruction, C6 symmetry, 3.8 Å; virions in SM buffer", "key": {"[1]": {"molecular_target": "P-SCSP1u nozzle protein (gp23) (cyanophage P-SCSP1u)"}, "[2]": {"molecular_target": "P-SCSP1u portal protein (gp16) (cyanophage P-SCSP1u)"}, "[3]": {"molecular_target": "P-SCSP1u adaptor protein (gp22) (cyanophage P-SCSP1u)"}, "[4]": {"molecular_target": "P-SCSP1u fiber protein (gp28) (cyanophage P-SCSP1u)"}}}
{"substance": "P-SCSP1u nozzle protein (gp23) (natural protein)", "values": [{"measurement": "stoichiometry N", "setting": "[1]", "value": 6}]}
{"substance": "P-SCSP1u portal protein (gp16) (natural protein)", "values": [{"measurement": "stoichiometry N", "setting": "[2]", "value": 12}]}
{"substance": "P-SCSP1u adaptor protein (gp22) (natural protein)", "values": [{"measurement": "stoichiometry N", "setting": "[3]", "value": 12}]}
{"substance": "P-SCSP1u fiber protein (gp28) (natural protein)", "values": [{"measurement": "stoichiometry N", "setting": "[4]", "value": 3}]}
